Data set [1] has as its target T1, NFAT3 full length (Homo sapiens) (UniProt Q14934).
T1 sequence: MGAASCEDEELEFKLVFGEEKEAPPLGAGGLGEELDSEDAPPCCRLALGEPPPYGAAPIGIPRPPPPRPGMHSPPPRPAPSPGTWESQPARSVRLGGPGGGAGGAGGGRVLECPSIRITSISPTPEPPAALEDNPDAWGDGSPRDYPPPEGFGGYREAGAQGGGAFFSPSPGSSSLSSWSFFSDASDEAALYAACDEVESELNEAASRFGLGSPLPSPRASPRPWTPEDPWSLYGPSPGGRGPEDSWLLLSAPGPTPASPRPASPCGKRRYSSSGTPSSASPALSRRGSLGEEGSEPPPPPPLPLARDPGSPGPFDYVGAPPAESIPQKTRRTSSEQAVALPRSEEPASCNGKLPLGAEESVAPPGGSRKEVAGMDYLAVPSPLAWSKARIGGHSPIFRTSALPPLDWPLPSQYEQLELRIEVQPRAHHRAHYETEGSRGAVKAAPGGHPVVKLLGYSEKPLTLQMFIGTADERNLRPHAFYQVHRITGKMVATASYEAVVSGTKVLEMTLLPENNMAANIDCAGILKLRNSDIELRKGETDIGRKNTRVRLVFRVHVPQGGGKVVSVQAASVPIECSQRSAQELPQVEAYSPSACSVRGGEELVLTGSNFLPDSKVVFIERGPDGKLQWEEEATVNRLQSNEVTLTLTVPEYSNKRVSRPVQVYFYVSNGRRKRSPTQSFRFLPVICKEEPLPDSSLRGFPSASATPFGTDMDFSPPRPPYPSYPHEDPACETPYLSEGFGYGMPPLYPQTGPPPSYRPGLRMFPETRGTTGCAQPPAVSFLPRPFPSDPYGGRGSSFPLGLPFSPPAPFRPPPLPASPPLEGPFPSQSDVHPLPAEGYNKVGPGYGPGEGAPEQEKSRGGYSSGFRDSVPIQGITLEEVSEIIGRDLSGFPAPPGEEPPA
Description: cell_activity. To be noted: HepG2 cells; COS cells 50-fold independent of PMA and ionomycin.

Data set [2] addresses T2, NFATc rel domain (NFATc-309) (Homo sapiens, UniProt O95644 SEQ:408-716).
T2 sequence: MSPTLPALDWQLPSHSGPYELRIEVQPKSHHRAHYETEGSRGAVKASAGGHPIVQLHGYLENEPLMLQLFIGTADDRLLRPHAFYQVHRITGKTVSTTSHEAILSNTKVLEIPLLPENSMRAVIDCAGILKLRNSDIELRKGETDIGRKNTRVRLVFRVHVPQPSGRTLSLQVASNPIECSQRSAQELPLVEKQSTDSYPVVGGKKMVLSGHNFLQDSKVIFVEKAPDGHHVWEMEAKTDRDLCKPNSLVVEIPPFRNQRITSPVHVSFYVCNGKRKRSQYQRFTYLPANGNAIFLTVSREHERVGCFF
Description: EMSA; probe length not stated, core SEQ 15; affinity similar to NFATp and NFAT3; also purified on SEQ 17 resin. To be noted: tags: N-terminal 8 aa heart muscle kinase site (pT7-HMK), E. coli.

Data set [3] concerns the target T3, NFAT3 rel domain (Homo sapiens, UniProt Q14934 SEQ:400-744).
T3 sequence: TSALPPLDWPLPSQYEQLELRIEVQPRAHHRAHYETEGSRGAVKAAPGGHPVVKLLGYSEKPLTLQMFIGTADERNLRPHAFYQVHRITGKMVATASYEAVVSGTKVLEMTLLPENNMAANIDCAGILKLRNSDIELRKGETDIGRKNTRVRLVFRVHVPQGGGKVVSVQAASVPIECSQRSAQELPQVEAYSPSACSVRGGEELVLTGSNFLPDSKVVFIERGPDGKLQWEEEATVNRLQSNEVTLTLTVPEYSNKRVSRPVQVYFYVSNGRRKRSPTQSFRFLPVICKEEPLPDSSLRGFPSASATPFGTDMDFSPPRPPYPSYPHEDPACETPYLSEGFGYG
Description: EMSA; probe length not stated, core SEQ 15; affinity similar to NFATp and NFATc; also purified on SEQ 17 resin. To be noted: tags: N-terminal 8 aa heart muscle kinase site (pT7-HMK), E. coli.

Data set [4] deals with T4, NFAT4 rel domain (Homo sapiens, UniProt Q12968 SEQ:393-708).
T4 sequence: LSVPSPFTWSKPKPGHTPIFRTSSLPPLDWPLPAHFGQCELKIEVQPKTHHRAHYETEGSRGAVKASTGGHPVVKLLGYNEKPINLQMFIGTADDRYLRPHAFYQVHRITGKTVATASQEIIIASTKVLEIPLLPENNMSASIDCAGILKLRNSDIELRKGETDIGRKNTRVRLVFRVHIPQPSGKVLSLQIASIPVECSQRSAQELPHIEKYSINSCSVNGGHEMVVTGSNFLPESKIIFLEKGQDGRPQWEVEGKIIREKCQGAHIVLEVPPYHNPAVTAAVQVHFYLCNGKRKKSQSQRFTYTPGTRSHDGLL
Description: EMSA; probe length not stated, core SEQ 15; also purified on SEQ 17 resin. To be noted: tags: N-terminal 8 aa heart muscle kinase site (pT7-HMK), E. coli.

Data set [5] concerns the target T5, NFATp rel domain (353 aa, homologous to murine NFATp 185-537) (Homo sapiens, UniProt Q13469 SEQ:390-742).
T5 sequence: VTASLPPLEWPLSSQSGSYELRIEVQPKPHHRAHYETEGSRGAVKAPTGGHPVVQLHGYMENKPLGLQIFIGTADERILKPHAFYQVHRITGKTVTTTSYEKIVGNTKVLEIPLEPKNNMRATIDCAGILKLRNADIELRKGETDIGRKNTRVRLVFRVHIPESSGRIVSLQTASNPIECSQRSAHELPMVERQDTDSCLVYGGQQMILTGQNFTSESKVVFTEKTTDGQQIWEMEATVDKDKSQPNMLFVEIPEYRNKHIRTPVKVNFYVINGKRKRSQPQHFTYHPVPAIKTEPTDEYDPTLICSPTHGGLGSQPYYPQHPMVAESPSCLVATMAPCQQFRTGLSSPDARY
Description: EMSA; probe length not stated, core SEQ 15; affinity similar to NFATc and NFAT3; 50 mM KCl, RT; also purified on SEQ 17 affinity resin. To be noted: tags: N-terminal 8 aa heart muscle kinase site (pT7-HMK), E. coli.

Data set [6] concerns the target T4, NFAT4 rel domain. Description: EMSA; binding not detectable; core only printed. To be noted: tags: N-terminal 8 aa heart muscle kinase site (pT7-HMK), E. coli.
In data set [7] the target is NFATp rel domain + c-Jun/Fra-1 (Homo sapiens, UniProt Q13469;P05412;P15407 Q13469:392-744,P05412:1-331,P15407:1-271). Description: EMSA; highly cooperative; similar affinity for all four NFATs; jun homodimers less effective; exact EMSA probe not stated. To be noted: tags: NFATp HMK site. For orientation: In EMSA bound probe runs differently from free probe, usually more slowly.

Data set [8] concerns the target NFAT3 rel domain + c-Jun/Fra-1 (Homo sapiens, UniProt Q14934;P05412;P15407 Q14934:400-744,P05412:1-331,P15407:1-271). In words: EMSA; highly cooperative; jun homodimers less effective; exact EMSA probe not stated. The following applies: tags: NFAT3 HMK site.
Data set [9] addresses NFATc rel domain + c-Jun/Fra-1 (Homo sapiens, UniProt O95644-2;P05412;P15407 O95644-2:408-716,P05412:1-331,P15407:1-271). The description is as above. To be noted: tags: NFATc HMK site.
Data set [10] deals with NFAT4 rel domain + c-Jun/Fra-1 (Homo sapiens, UniProt Q12968;P05412;P15407 Q12968:393-708,P05412:1-331,P15407:1-271). Description: EMSA; highly cooperative; NFAT4 alone does not bind; jun homodimers less effective; exact EMSA probe not stated. To be noted: tags: NFAT4 HMK site.
Chain of NFAT4 rel domain + c-Jun/Fra-1 (P05412 whole entry, chain 2 of 2, the tested form may be a part): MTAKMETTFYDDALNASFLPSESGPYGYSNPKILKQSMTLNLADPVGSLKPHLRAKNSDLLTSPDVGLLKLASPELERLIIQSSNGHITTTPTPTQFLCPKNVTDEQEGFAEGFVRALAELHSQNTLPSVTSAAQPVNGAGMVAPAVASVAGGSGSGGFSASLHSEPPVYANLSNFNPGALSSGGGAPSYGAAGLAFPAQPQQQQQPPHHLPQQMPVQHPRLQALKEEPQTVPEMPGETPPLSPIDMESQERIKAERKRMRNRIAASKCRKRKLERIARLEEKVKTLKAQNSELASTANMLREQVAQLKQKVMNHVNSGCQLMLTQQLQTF
Chain of NFAT4 rel domain + c-Jun/Fra-1 (P15407 whole entry, chain 3 of 2, the tested form may be a part): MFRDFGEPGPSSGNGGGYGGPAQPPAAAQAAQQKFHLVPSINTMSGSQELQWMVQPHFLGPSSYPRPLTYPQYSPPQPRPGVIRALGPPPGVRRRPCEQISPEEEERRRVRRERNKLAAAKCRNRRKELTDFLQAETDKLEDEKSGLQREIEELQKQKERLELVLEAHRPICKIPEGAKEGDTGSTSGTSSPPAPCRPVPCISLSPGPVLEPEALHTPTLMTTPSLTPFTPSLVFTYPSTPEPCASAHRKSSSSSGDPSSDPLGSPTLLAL

Chain of NFATp rel domain + c-Jun/Fra-1 (Q13469 392-744, chain 1 of 3): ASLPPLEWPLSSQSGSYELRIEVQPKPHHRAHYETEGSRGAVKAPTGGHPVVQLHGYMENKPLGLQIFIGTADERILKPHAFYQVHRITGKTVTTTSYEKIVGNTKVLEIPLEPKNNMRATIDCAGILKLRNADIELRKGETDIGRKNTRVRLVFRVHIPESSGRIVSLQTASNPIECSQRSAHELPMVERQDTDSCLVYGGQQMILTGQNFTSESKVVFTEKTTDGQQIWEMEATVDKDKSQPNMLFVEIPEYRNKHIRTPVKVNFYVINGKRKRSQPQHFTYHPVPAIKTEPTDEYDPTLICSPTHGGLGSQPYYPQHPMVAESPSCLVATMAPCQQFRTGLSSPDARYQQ
Chain of NFATp rel domain + c-Jun/Fra-1 (P05412 whole entry, chain 2 of 3, the tested form may be a part): as the sequence (P05412 whole entry, chain 2 of 2, the tested form may be a part) above
Chain of NFATp rel domain + c-Jun/Fra-1 (P15407 whole entry, chain 3 of 3, the tested form may be a part): as the sequence (P15407 whole entry, chain 3 of 2, the tested form may be a part) above
Chain of NFAT3 rel domain + c-Jun/Fra-1 (P05412 whole entry, chain 2 of 2, the tested form may be a part): as the sequence (P05412 whole entry, chain 2 of 2, the tested form may be a part) above
Chain of NFAT3 rel domain + c-Jun/Fra-1 (P15407 whole entry, chain 3 of 2, the tested form may be a part): as the sequence (P15407 whole entry, chain 3 of 2, the tested form may be a part) above
Chain of NFATc rel domain + c-Jun/Fra-1 (P05412 whole entry, chain 2 of 2, the tested form may be a part): as the sequence (P05412 whole entry, chain 2 of 2, the tested form may be a part) above
Chain of NFATc rel domain + c-Jun/Fra-1 (P15407 whole entry, chain 3 of 2, the tested form may be a part): as the sequence (P15407 whole entry, chain 3 of 2, the tested form may be a part) above

Regarding “3x antigen response element (-286 to -257) tk reporter”, the activity (fold activation) in data set [1] amounted to 140.

B1: IL-4 promoter NFAT site (dsDNA)
DNA 1: TACATTGGAAAATTTTATTACAC
DNA 2: GTGTAATAAAATTTTCCAATGTA
On to B1, for which the binding result in [2], in data set [3] and in data set [5] was “binds” each time. Also, in data set [4], the binding signal was > 10 fold lower affinity than NFATp, NFATc, NFAT3.

B2: IL-2 promoter NFAT site (distal antigen response element) (dsDNA)
DNA 1: GGAAAAACTG
DNA 2: CAGTTTTTCC
Regarding B2, the binding result in data set [6] is “no binding”.

B3: IL-2 NFAT/AP-1 composite element (dsDNA)
DNA 1: GGAGGAAAAACTGTTTCATACAGAAGGCGT
DNA 2: ACGCCTTCTGTATGAAACAGTTTTTCCTCC
As to B3, the binding result in data set [7], in data set [8], in [9] and in [10] was “binds” each time.

(Values after patent publication US5612455, “Nuclear factors and binding assay” (Tularik, Inc.).)
